Variants at the floor of the assay were thinned out.

From the supplement of paper PMC9233669 come the findings set out here.

For one series, the system named is biotinyl-Phe-oxazolone. Description: self-aminoacylation, catalytic enhancement (BFO) (fold over background); higher = more active; k-Seq, kA / k0A0; sequences stand for … in GGGAAUGGAUCCACAUCUACGAAUUC…UUCACUGCAGACUUGACGAAGCUG
Put shortly:
(§1)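 Mutagenized RNA pools (0.43 μM; 21-nt variable region) were treated with 2–1250 μM of each biotinyl-aminoacyl-oxazolone. Conditions were 50 μL HEPES/NaCl/KCl/MgCl2/CaCl2 buffer, 5% acetonitrile, pH 6.9–7.0, room temperature, 90 minutes. Catalytic enhancement, the median kA relative to the uncatalyzed rate, was derived from streptavidin capture, qPCR and Illumina sequencing.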

A further series concerns biotinyl-Ile-oxazolone. Briefly: self-aminoacylation, catalytic enhancement (BIO) (fold over background); higher = more active; k-Seq, kA / k0A0; sequences stand for … in GGGAAUGGAUCCACAUCUACGAAUUC…UUCACUGCAGACUUGACGAAGCUG
Summed up:
as §1

Another series relates to biotinyl-Met-oxazolone. Briefly: self-aminoacylation, catalytic enhancement (BMO) (fold over background); higher = more active; k-Seq, kA / k0A0; sequences stand for … in GGGAAUGGAUCCACAUCUACGAAUUC…UUCACUGCAGACUUGACGAAGCUG
Put shortly:
as §1

Another series has as its system biotinyl-Val-oxazolone. Briefly: self-aminoacylation, catalytic enhancement (BVO) (fold over background); higher = more active; k-Seq, kA / k0A0; sequences stand for … in GGGAAUGGAUCCACAUCUACGAAUUC…UUCACUGCAGACUUGACGAAGCUG
Put shortly: as §1

The test system of a further series is biotinyl-Leu-oxazolone. Description: self-aminoacylation, catalytic enhancement (BLO) (fold over background); higher = more active; k-Seq, kA / k0A0; sequences stand for … in GGGAAUGGAUCCACAUCUACGAAUUC…UUCACUGCAGACUUGACGAAGCUG
Summed up: as §1

The next series deals with biotinyl-Trp-oxazolone. Briefly: self-aminoacylation, catalytic enhancement (BWO) (fold over background); higher = more active; k-Seq, kA / k0A0; sequences stand for … in GGGAAUGGAUCCACAUCUACGAAUUC…UUCACUGCAGACUUGACGAAGCUG
Summed up: as §1

Take “AUUCCCCUGGUCAUGGAGUGA [Fam2.1 aminoacylation ribozyme variant]”: the self-aminoacylation with biotinyl-Phe-oxazolone is 16.3; in the series with biotinyl-Ile-oxazolone it was 2.92; in the series on biotinyl-Met-oxazolone it was 3.85; in the series on biotinyl-Val-oxazolone, 3.12; in the series on biotinyl-Leu-oxazolone it was 3.99; in the series on biotinyl-Trp-oxazolone it was 4.27.

In the case of “CAGUUUGCCAAUAGUCGCAAG [Fam3.1 aminoacylation ribozyme variant]”, the self-aminoacylation with biotinyl-Phe-oxazolone is 6.08; in the series on biotinyl-Ile-oxazolone, 2.08; with biotinyl-Met-oxazolone, 1.83; in the series with biotinyl-Val-oxazolone, 1.82; with biotinyl-Leu-oxazolone, 1.91; in the series on biotinyl-Trp-oxazolone, 1.34.

Take “AUUCACUUAGGUCAACGGGUG [Fam2.2 aminoacylation ribozyme variant]”: the self-aminoacylation in the series with biotinyl-Phe-oxazolone turned out to be 21.2; in the series on biotinyl-Ile-oxazolone it was 2.52; in the series on biotinyl-Met-oxazolone, 3.84; with biotinyl-Val-oxazolone it was 2.26; with biotinyl-Leu-oxazolone, 4.92; in the series on biotinyl-Trp-oxazolone, 3.53.

As for “AAGUUUGCUGAUAGGCGCAAG [Fam3.1 aminoacylation ribozyme variant]”, the self-aminoacylation turned out to be 2.19 in the series on biotinyl-Phe-oxazolone; 0.732 in the series with biotinyl-Ile-oxazolone; 1.26 with biotinyl-Met-oxazolone; 0.765 in the series on biotinyl-Val-oxazolone; 0.707 with biotinyl-Leu-oxazolone; 0.544 in the series with biotinyl-Trp-oxazolone.

Turning to “UUUACCCUGGUCAGCGAGUGA [Fam2.1 aminoacylation ribozyme variant]”, the self-aminoacylation is 16.3 with biotinyl-Phe-oxazolone; 3.46 in the series on biotinyl-Ile-oxazolone; 5.62 with biotinyl-Met-oxazolone; 2.96 in the series with biotinyl-Val-oxazolone; 5.43 with biotinyl-Leu-oxazolone; 7.06 in the series with biotinyl-Trp-oxazolone.

With “AGUACCCUGGUCAUCUAGUGA [Fam2.1 aminoacylation ribozyme variant]”, the self-aminoacylation worked out at 47.9 with biotinyl-Phe-oxazolone; 3.73 in the series with biotinyl-Ile-oxazolone; 7.51 in the series on biotinyl-Met-oxazolone; 3.93 in the series on biotinyl-Val-oxazolone; 8.87 in the series on biotinyl-Leu-oxazolone; 8.37 in the series on biotinyl-Trp-oxazolone.

As for “AUUACCCUGGUCAGCGAGUGU [Fam2.1 aminoacylation ribozyme variant]”, the self-aminoacylation is 15.4 in the series with biotinyl-Phe-oxazolone; 2.49 in the series with biotinyl-Ile-oxazolone; 3.7 in the series on biotinyl-Met-oxazolone; 2.41 in the series with biotinyl-Val-oxazolone; 3.85 in the series on biotinyl-Leu-oxazolone; 4.47 with biotinyl-Trp-oxazolone.

For “CCAUACUUCAAGAAAUCGGUC [Fam1B.1 aminoacylation ribozyme variant]”, the self-aminoacylation amounted to 5.18 with biotinyl-Phe-oxazolone; 0.907 in the series on biotinyl-Ile-oxazolone; 0.777 in the series on biotinyl-Met-oxazolone; 0.787 in the series with biotinyl-Val-oxazolone; 0.87 in the series on biotinyl-Leu-oxazolone; 4.39 in the series on biotinyl-Trp-oxazolone.

With “AUUACCCUCGUCAUCGCGUGA [Fam2.1 aminoacylation ribozyme variant]”, the self-aminoacylation in the series with biotinyl-Phe-oxazolone came out at 51.9; with biotinyl-Ile-oxazolone, 3.63; in the series with biotinyl-Met-oxazolone, 6.01; in the series with biotinyl-Val-oxazolone it was 4.02; in the series with biotinyl-Leu-oxazolone, 6.51; in the series on biotinyl-Trp-oxazolone, 6.81.

On to “CCACACUUCAACCAAUCCGUC [Fam1B.1 aminoacylation ribozyme variant]”, for which the self-aminoacylation stood at 1.33 in the series on biotinyl-Phe-oxazolone; 1.07 with biotinyl-Ile-oxazolone; 0.672 in the series on biotinyl-Met-oxazolone; 0.867 with biotinyl-Val-oxazolone; 0.784 in the series with biotinyl-Leu-oxazolone; 0.919 in the series on biotinyl-Trp-oxazolone.

On to “CCACACCUCAAGCAAUCGAUC [Fam1B.1 aminoacylation ribozyme variant]”, for which the self-aminoacylation with biotinyl-Phe-oxazolone was 0.758; in the series on biotinyl-Ile-oxazolone, 0.643; in the series on biotinyl-Met-oxazolone, 0.442; with biotinyl-Val-oxazolone it was 0.76; with biotinyl-Leu-oxazolone, 0.553; in the series on biotinyl-Trp-oxazolone it was 0.298.

As to “CCACACAUCAAGGAAUCGGUC [Fam1B.1 aminoacylation ribozyme variant]”, the self-aminoacylation in the series on biotinyl-Phe-oxazolone amounted to 0.77; in the series with biotinyl-Ile-oxazolone, 1.04; in the series with biotinyl-Met-oxazolone, 0.804; with biotinyl-Val-oxazolone, 0.884; with biotinyl-Leu-oxazolone, 1.02; with biotinyl-Trp-oxazolone it was 0.926.

Turning to “AUUCACCUAAGUCAUCGAGUG [Fam2.2 aminoacylation ribozyme variant]”, the self-aminoacylation in the series with biotinyl-Phe-oxazolone came to 22.9; in the series with biotinyl-Ile-oxazolone it was 3.92; with biotinyl-Met-oxazolone it was 5.75; with biotinyl-Val-oxazolone, 3.78; with biotinyl-Leu-oxazolone, 7.69; in the series with biotinyl-Trp-oxazolone, 5.16.

In the case of “AUCCUUCAAACAAUCGGUCUG [Fam1A.1 aminoacylation ribozyme variant]”, the self-aminoacylation is 4.27 in the series on biotinyl-Phe-oxazolone; 0.755 in the series with biotinyl-Ile-oxazolone; 0.822 in the series with biotinyl-Met-oxazolone; 0.688 in the series with biotinyl-Val-oxazolone; 0.809 in the series with biotinyl-Leu-oxazolone; 3.9 in the series on biotinyl-Trp-oxazolone.

With “GAACUUCAAACAAUCGGUCUG [Fam1A.1 aminoacylation ribozyme variant]”, the self-aminoacylation in the series with biotinyl-Phe-oxazolone turned out to be 65.3; with biotinyl-Ile-oxazolone, 1.85; with biotinyl-Met-oxazolone it was 1.7; in the series with biotinyl-Val-oxazolone it was 1.66; in the series with biotinyl-Leu-oxazolone, 2.4; with biotinyl-Trp-oxazolone, 35.8.

For the sequence “AUUACCCUGGUCACCGAGUGA [Fam2.1 aminoacylation ribozyme variant]”, the self-aminoacylation with biotinyl-Phe-oxazolone was determined as 51.3; with biotinyl-Ile-oxazolone it was 3.9; with biotinyl-Met-oxazolone it was 8.44; with biotinyl-Val-oxazolone, 4.25; in the series with biotinyl-Leu-oxazolone, 9.26; in the series with biotinyl-Trp-oxazolone it was 9.22.

For the sequence “CCACAAUUCAAGCAAUCGGCC [Fam1B.1 aminoacylation ribozyme variant]”, the self-aminoacylation in the series with biotinyl-Phe-oxazolone was found to be 5.63; with biotinyl-Ile-oxazolone it was 4.08; in the series with biotinyl-Met-oxazolone, 4.55; in the series with biotinyl-Val-oxazolone it was 4.38; in the series on biotinyl-Leu-oxazolone it was 3.52; in the series on biotinyl-Trp-oxazolone, 3.88.

In the case of “CCACACUUCAAGGUAUCGGUC [Fam1B.1 aminoacylation ribozyme variant]”, the self-aminoacylation with biotinyl-Phe-oxazolone was 0.829; in the series on biotinyl-Ile-oxazolone, 0.941; in the series on biotinyl-Met-oxazolone, 0.95; in the series on biotinyl-Val-oxazolone, 0.995; with biotinyl-Leu-oxazolone, 0.907; in the series with biotinyl-Trp-oxazolone it was 1.28.

Turning to “CUCCUUCAAACAAUCCGUCUG [Fam1A.1 aminoacylation ribozyme variant]”, the self-aminoacylation came to 1.24 with biotinyl-Phe-oxazolone; 1.03 with biotinyl-Ile-oxazolone; 0.657 in the series on biotinyl-Met-oxazolone; 0.949 with biotinyl-Val-oxazolone; 0.659 in the series on biotinyl-Leu-oxazolone; 1.25 in the series on biotinyl-Trp-oxazolone.

As for “AUUCAACAAGGUCAUCGGGUG [Fam2.2 aminoacylation ribozyme variant]”, the self-aminoacylation amounted to 57.7 in the series with biotinyl-Phe-oxazolone; 4.09 in the series with biotinyl-Ile-oxazolone; 7.02 in the series with biotinyl-Met-oxazolone; 3.32 in the series on biotinyl-Val-oxazolone; 7.96 in the series on biotinyl-Leu-oxazolone; 5.71 in the series with biotinyl-Trp-oxazolone.

As to “CUCCUUCAAACUAUCGGUCUG [Fam1A.1 aminoacylation ribozyme variant]”, the self-aminoacylation in the series with biotinyl-Phe-oxazolone turned out to be 1.92; in the series on biotinyl-Ile-oxazolone it was 1.14; in the series on biotinyl-Met-oxazolone, 1.17; in the series with biotinyl-Val-oxazolone, 1.15; with biotinyl-Leu-oxazolone, 0.895; with biotinyl-Trp-oxazolone, 1.5.

Regarding “AAGUUUGCUAGUUGUCGCAAG [Fam3.1 aminoacylation ribozyme variant]”, the self-aminoacylation was determined as 3.68 in the series with biotinyl-Phe-oxazolone; 1.07 in the series with biotinyl-Ile-oxazolone; 0.898 in the series with biotinyl-Met-oxazolone; 1.08 in the series with biotinyl-Val-oxazolone; 1.16 in the series with biotinyl-Leu-oxazolone; 1.18 with biotinyl-Trp-oxazolone.

In the case of “AUUAUCCUGAUCAUCGAGUGA [Fam2.1 aminoacylation ribozyme variant]”, the self-aminoacylation worked out at 60 with biotinyl-Phe-oxazolone; 4.92 in the series with biotinyl-Ile-oxazolone; 11.1 with biotinyl-Met-oxazolone; 4.92 in the series on biotinyl-Val-oxazolone; 11.4 with biotinyl-Leu-oxazolone; 11.8 with biotinyl-Trp-oxazolone.
